Data taken from US20250263504A1 (Takeda / Millennium, published 2025).

T1: Factor XIIa (FXIIa) (UniProt P00748 20-372; P00748 373-615, limits assumed)
T1 construct: the description speaks of human FXIIa; also called active Factor XII
T1 sequence (looked up) 1: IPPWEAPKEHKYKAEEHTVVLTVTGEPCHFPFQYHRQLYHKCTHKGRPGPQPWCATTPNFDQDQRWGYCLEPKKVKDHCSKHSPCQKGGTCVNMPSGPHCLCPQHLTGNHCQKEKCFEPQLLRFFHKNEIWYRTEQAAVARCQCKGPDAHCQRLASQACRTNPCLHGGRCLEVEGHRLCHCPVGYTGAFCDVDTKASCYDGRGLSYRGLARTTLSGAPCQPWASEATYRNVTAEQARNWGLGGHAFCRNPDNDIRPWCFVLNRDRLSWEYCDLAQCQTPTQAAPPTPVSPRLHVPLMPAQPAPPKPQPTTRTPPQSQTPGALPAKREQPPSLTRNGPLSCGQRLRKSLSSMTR
T1 sequence (looked up) 2: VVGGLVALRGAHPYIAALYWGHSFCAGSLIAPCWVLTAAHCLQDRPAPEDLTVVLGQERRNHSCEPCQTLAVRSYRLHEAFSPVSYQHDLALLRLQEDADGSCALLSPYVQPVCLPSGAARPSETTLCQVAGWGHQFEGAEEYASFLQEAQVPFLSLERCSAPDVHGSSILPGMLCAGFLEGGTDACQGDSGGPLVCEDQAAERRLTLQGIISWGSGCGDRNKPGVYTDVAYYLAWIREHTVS

B1: 620I-X0136-C05 (bispecific antibody)
heavy: not shown
light: DIQMTQSPSTLSASVGDRVTITCRASQSISSWLAWYQQKPGKAPKLLIYKASTLESGVPSRFSGSGSGTEFTLTISSLQPDDFATYYCQQYNTYWTFGQGTKVEIKRTVAAPSVFIFPPSDEQLKSGTASVVCLLNNFYPREAKVQWKVDNALQSGNSQESVTEQDSKDSTYSLSSTLTLSKADYEKHKVYACEVTHQGLSSPVTKSFNRGEC
notes: also called 620I-X136-C05
B2: 620I-X0138-A06 (bispecific antibody)
heavy: not shown
light: B1 light
notes: also called 620I-X138-A06
B3: 620I-X0136-A09 (bispecific antibody, human IgG1, kappa)
heavy: not shown
light: B1 light
notes: also called 620I-X136-A09
B4: 620I-X0139-G02 (bispecific antibody)
heavy: not shown
light: B1 light
notes: also called 620I-X139-G02
B5: 620I-X0136-B11 (bispecific antibody)
heavy: not shown
light: B1 light
notes: also called 620I-X136-B11
B6: 620I-X0136-C01 (bispecific antibody)
heavy: not shown
light: B1 light
notes: also called 620I-X136-C01
B7: 620I-X0138-C12 (bispecific antibody)
heavy: not shown
light: B1 light
notes: also called 620I-X138-C12
B8: 620I-X0136-C08 (bispecific antibody)
heavy: not shown
light: B1 light
notes: also called 620I-X136-C08
B9: 620I-X0138-A08 (bispecific antibody)
heavy: not shown
light: B1 light
notes: also called 620I-X138-A08
B10: 620I-X0136-G04 (bispecific antibody)
heavy: not shown
light: B1 light
notes: also called 620I-X136-G04
B11: 620I-X0136-E07 (bispecific antibody)
heavy: not shown
light: B1 light
notes: also called 620I-X136-E07
B12: 620I-X0136-G08 (bispecific antibody)
heavy: not shown
light: B1 light
notes: also called 620I-X136-G08
B13: 620I-X0138-A12 (bispecific antibody)
heavy: not shown
light: B1 light
notes: also called 620I-X138-A12
B14: 620I-X0136-G05 (bispecific antibody)
heavy: not shown
light: B1 light
notes: also called 620I-X136-G05
B15: 620I-X0142-E09 (bispecific antibody)
heavy: not shown
light: B1 light
notes: also called 620I-X142-E09
B16: 620I-X0138-B06 (bispecific antibody)
heavy: not shown
light: B1 light
notes: also called 620I-X138-B06
B17: 620I-X0136-F11 (bispecific antibody)
heavy: not shown
light: B1 light
notes: also called 620I-X136-F11
B18: 620I-X0136-A11 (bispecific antibody)
heavy: not shown
light: B1 light
notes: also called 620I-X136-A11
B19: 620I-X0136-C09 (bispecific antibody)
heavy: not shown
light: B1 light
notes: also called 620I-X136-C09
B20: 620I-X0136-A04 (bispecific antibody)
heavy: not shown
light: B1 light
notes: also called 620I-X136-A04
B21: 620I-X0136-F07 (bispecific antibody)
heavy: not shown
light: B1 light
notes: also called 620I-X136-F07
B22: 620I-X0142-A10 (bispecific antibody)
heavy: not shown
light: B1 light
notes: also called 620I-X142-A10
B23: 620I-X0136-D12 (bispecific antibody)
heavy: not shown
light: B1 light
notes: also called 620I-X136-D12
B24: 620I-X0136-A02 (bispecific antibody)
heavy: not shown
light: B1 light
notes: also called 620I-X136-A02
B25: 620I-X0136-G10 (bispecific antibody)
heavy: not shown
light: B1 light
notes: also called 620I-X136-G10
B26: 620I-X0136-C12 (bispecific antibody)
heavy: not shown
light: B1 light
notes: also called 620I-X136-C12
B27: 620I-X0136-B02 (bispecific antibody)
heavy: not shown
light: B1 light
notes: also called 620I-X136-B02
B28: 620I-X0136-C11 (bispecific antibody)
heavy: not shown
light: B1 light
notes: also called 620I-X136-C11
B29: 620I-X0137-A10 (bispecific antibody)
heavy: not shown
light: B1 light
notes: also called 620I-X137-A10
B30: 620I-X0137-C08 (bispecific antibody)
heavy: not shown
light: B1 light
notes: also called 620I-X137-C08
B31: 620I-X0136-C07 (bispecific antibody)
heavy: not shown
light: B1 light
notes: also called 620I-X136-C07
B32: 620I-X0136-A12 (bispecific antibody)
heavy: not shown
light: B1 light
notes: also called 620I-X136-A12
B33: 620I-X0138-B07 (bispecific antibody)
heavy: not shown
light: B1 light
notes: also called 620I-X138-B07
B34: 620I-X0136-A01 (bispecific antibody)
heavy: not shown
light: B1 light
notes: also called 620I-X136-A01
B35: 620I-X0136-B07 (bispecific antibody)
heavy: not shown
light: B1 light
notes: also called 620I-X136-B07
B36: 620I-X0136-D05 (bispecific antibody)
heavy: not shown
light: B1 light
notes: also called 620I-X136-D05
B37: 620I-X0136-C04 (bispecific antibody)
heavy: not shown
light: B1 light
notes: also called 620I-X136-C04
B38: 620I-X0142-A11 (bispecific antibody)
heavy: not shown
light: B1 light
notes: also called 620I-X142-A11
B39: 620I-X0138-D04 (bispecific antibody)
heavy: not shown
light: B1 light
notes: also called 620I-X138-D04
B40: 620I-X0138-A02 (bispecific antibody)
heavy: not shown
light: B1 light
notes: also called 620I-X138-A02
B41: 620I-X0138-B10 (bispecific antibody)
heavy: not shown
light: B1 light
notes: also called 620I-X138-B10
B42: 620I-X0136-E05 (bispecific antibody)
heavy: not shown
light: B1 light
notes: also called 620I-X136-E05
B43: 620I-X0138-A01 (bispecific antibody)
heavy: not shown
light: B1 light
notes: also called 620I-X138-A01
B44: 620I-X0138-D03 (bispecific antibody)
heavy: not shown
light: B1 light
notes: also called 620I-X138-D03
B45: 620I-X0138-C07 (bispecific antibody)
heavy: not shown
light: B1 light
notes: also called 620I-X138-C07
B46: 620I-X0137-B08 (bispecific antibody)
heavy: not shown
light: B1 light
notes: also called 620I-X137-B08
B47: 620I-X0136-D06 (bispecific antibody)
heavy: not shown
light: B1 light
notes: also called 620I-X136-D06
B48: 620I-X0136-A05 (bispecific antibody)
heavy: not shown
light: B1 light
notes: also called 620I-X136-A05

biological target: T2, plasma kallikrein (pKal) (UniProt P03952 20-390; P03952 391-638, limits assumed); experiment: enzyme inhibition, corrected Ki,app
T2 construct: the description speaks of human pKal; also called active pKal
T2 sequence (P03952 20-390 limits assumed, form in doubt, chain 1 of 2): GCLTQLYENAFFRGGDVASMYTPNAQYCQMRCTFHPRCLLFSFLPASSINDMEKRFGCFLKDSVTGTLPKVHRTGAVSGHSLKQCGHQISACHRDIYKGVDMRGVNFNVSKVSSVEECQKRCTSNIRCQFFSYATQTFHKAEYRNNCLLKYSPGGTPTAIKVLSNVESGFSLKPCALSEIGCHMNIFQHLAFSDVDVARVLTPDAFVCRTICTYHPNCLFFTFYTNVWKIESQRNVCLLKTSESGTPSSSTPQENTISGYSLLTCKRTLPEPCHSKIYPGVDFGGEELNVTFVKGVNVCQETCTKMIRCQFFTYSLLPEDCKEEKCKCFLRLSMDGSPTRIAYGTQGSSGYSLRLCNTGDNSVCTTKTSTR
T2 sequence (P03952 391-638 limits assumed, form in doubt, chain 2 of 2): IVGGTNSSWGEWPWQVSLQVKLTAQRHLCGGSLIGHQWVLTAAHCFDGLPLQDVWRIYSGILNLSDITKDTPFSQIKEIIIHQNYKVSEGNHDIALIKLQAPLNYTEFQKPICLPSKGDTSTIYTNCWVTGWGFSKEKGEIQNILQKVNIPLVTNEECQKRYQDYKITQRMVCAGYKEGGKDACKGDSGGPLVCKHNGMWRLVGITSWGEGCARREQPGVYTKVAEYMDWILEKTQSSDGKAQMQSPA

Point of comparison: B44, Ki 0.079 nM. Against it:
- B1 — 1.9-fold higher, 0.15 nM
- B2 — 1.8-fold higher, 0.145 nM
- B3 — 2.4-fold higher, 0.19 nM
- B4 — 2.2-fold higher, 0.171 nM
- B5 — 2.2-fold higher, 0.172 nM
- B6 — 2.2-fold higher, 0.173 nM
- B7 — 3.4-fold higher, 0.267 nM
- B8 — 2.7-fold higher, 0.216 nM
- B9 — 12-fold higher, 0.92 nM
- B10 — 2.3-fold higher, 0.179 nM
- B11 — 2.4-fold higher, 0.19 nM
- B12 — 2.2-fold higher, 0.176 nM
- B13 — 5.1-fold higher, 0.405 nM
- B14 — 2.3-fold higher, 0.179 nM
- B15 — 2.2-fold higher, 0.174 nM
- B16 — 4.2-fold higher, 0.33 nM
- B17 — 2.5-fold higher, 0.201 nM
- B18 — 2.5-fold higher, 0.199 nM
- B19 — 2.2-fold higher, 0.173 nM
- B20 — 2.2-fold higher, 0.171 nM
- B21 — 2.3-fold higher, 0.183 nM
- B22 — 2.2-fold higher, 0.175 nM
- B23 — 2.3-fold higher, 0.179 nM
- B24 — 2.2-fold higher, 0.176 nM
- B25 — 2.2-fold higher, 0.171 nM
- B26 — 2.7-fold higher, 0.217 nM
- B27 — 2.7-fold higher, 0.21 nM
- B28 — 1.9-fold higher, 0.154 nM
- B29 — 2.5-fold higher, 0.195 nM
- B30 — 1.9-fold higher, 0.153 nM
- B31 — 2.3-fold higher, 0.182 nM
- B32 — 3-fold higher, 0.234 nM
- B33 — 3.1-fold higher, 0.246 nM
- B34 — 1.7-fold higher, 0.135 nM
- B35 — 2.1-fold higher, 0.168 nM
- B36 — within 1.5-fold, 0.055 nM
- B37 — 2.6-fold higher, 0.205 nM
- B38 — 2-fold higher, 0.158 nM
- B39 — 2.7-fold higher, 0.215 nM
- B40 — 2.6-fold higher, 0.206 nM
- B41 — within 1.5-fold, 0.075 nM
- B42 — 2-fold higher, 0.158 nM
- B43 — 1.9-fold higher, 0.154 nM
- B45 — 2.5-fold higher, 0.196 nM
- B46 — 3.9-fold higher, 0.312 nM
- B47 — 2.2-fold higher, 0.176 nM
- B48 — 2.3-fold higher, 0.179 nM

biological target: T1, Factor XIIa (FXIIa); experiment: enzyme inhibition, corrected Ki,app

Point of comparison: B9, Ki 0.357 nM. Against it:
- B1 — 6.2-fold lower, 0.058 nM
- B4 — 2.2-fold lower, 0.161 nM
- B5 — 1.9-fold lower, 0.184 nM
- B6 — 2.7-fold higher, 0.957 nM
- B7 — 2-fold higher, 0.697 nM
- B8 — 3.4-fold higher, 1.23 nM
- B10 — 3.3-fold lower, 0.107 nM
- B11 — within 1.5-fold, 0.312 nM
- B12 — 13-fold lower, 0.028 nM
- B13 — 5.4-fold higher, 1.93 nM
- B14 — 3.6-fold lower, 0.1 nM
- B15 — 2.2-fold lower, 0.163 nM
- B16 — within 1.5-fold, 0.405 nM
- B17 — 1.5-fold lower, 0.235 nM
- B18 — 1.8-fold lower, 0.193 nM
- B19 — 4-fold lower, 0.09 nM
- B20 — 1.6-fold lower, 0.23 nM
- B21 — 2.1-fold lower, 0.167 nM
- B22 — within 1.5-fold, 0.389 nM
- B23 — 5.7-fold lower, 0.063 nM
- B24 — 2.6-fold lower, 0.136 nM
- B25 — 13-fold lower, 0.028 nM
- B26 — 4.4-fold higher, 1.57 nM
- B27 — 8-fold higher, 2.86 nM
- B28 — 9.4-fold lower, 0.038 nM
- B29 — 1.7-fold lower, 0.205 nM
- B30 — 10-fold lower, 0.034 nM
- B31 — 2-fold higher, 0.699 nM
- B32 — within 1.5-fold, 0.304 nM
- B33 — 2.6-fold lower, 0.135 nM
- B34 — 1.6-fold lower, 0.224 nM
- B35 — 3.6-fold lower, 0.099 nM
- B36 — 27-fold lower, 0.013 nM
- B37 — 1.9-fold lower, 0.189 nM
- B38 — 1.8-fold lower, 0.195 nM
- B39 — 4.5-fold lower, 0.079 nM
- B40 — within 1.5-fold, 0.288 nM
- B41 — 6.2-fold lower, 0.058 nM
- B42 — 2.1-fold lower, 0.172 nM
- B43 — within 1.5-fold, 0.465 nM
- B44 — within 1.5-fold, 0.344 nM
- B45 — within 1.5-fold, 0.314 nM
- B46 — within 1.5-fold, 0.409 nM
- B47 — 4.2-fold lower, 0.084 nM
- B48 — 3.2-fold lower, 0.111 nM
